This series is described as follows: yeast display, Sf9 membrane polyspecificity reagent, FACS + sequencing; frameworks hold sequencing errors. The gist of the method:
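A synthetic nanobody library was expressed on Saccharomyces cerevisiae BJ5465 by galactose induction for 36–48 hours. The library was stained for 1 hour at 4 °C with 10% biotinylated, detergent-solubilized Sf9 membrane reagent and enriched with streptavidin microbeads before FACS. Low and high (top ~1%) gates were set on anti-HA fluorescence for expression and streptavidin fluorescence for reagent binding, and each polyreactivity label reflects the gate of origin.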
As to “QVQLVESGGGLVQAGGSLRLSCAASGFIGSNTMGWYRQAPGKERELVAAISWSGGSTYYADSVKGRFTISRDNAKNTVYLQMNSLKPEDTAVYYSAARRNSRARRTFGYWGQGTQVTVSS”, the “polyreactivity (PSR sort gate)” value is listed as “high polyreactivity”.

For “QVQLVESGGGLVQAGGSLRLSCAASGFIIDANTMGWYRQAPGKERELVAAINESGGSTYYADSVKGRFTISRDNAKNTVYLQMNSLKPEDTAVYYCAADPTWDYGWSGYPYYYYWGQGTQVTVSS”, the “polyreactivity (PSR sort gate)” value is “high polyreactivity”.

In the case of “QVQLVESGGGLVQAGGSLRLSCAASGFIIEVNAMGWYRQAPGKERELVARIDWSGGSTYYADSVKWRFTISRDNAKNTVYLQMNILKPEYTEVYYCNAEWTYADPNEYGYWGQGTLVTVSS”, the “polyreactivity (PSR sort gate)” value is reported as “low polyreactivity”.

Turning to “QVQLVESGGGLVQAGGSLRLSCAASGFIIFRYAMGWYRQAPGKERELDAAITRSGGSTYYADSVKGRFTISRDNAKNSVYLQMNCLKPEDTAVYYCNASRQCFTYARMDYWGQGTQVTVSS”, the “polyreactivity (PSR sort gate)” value is listed as “high polyreactivity”.

As for “QVQLVESGGGLVQAGGSLRLSCAASGFIIGRNVMGWYRQAPGKERELVAAISYSGGSTYYADSVKGRFTISRDNAKNTVYLQMNSLKPEDTAVYYCNAEAWVSQDWCQWVAYDYWGQGTQVTVSS”, the “polyreactivity (PSR sort gate)” value is on record as “high polyreactivity”.

For the sequence “QVQLVESGGGLVQAGGSLRLSCAASGFIIGWYVMGWYRQAPGKERELVAAITWDSTSTYYADSVKGRFTISRDNAKNTVYLQMNSLKPEDTAVYYCAADRLDRYYYWGEGTQVTVSS”, the “polyreactivity (PSR sort gate)” value is “low polyreactivity”.

Take “QVQLVESGGGLVQAGGSLRLSCAASGFIIKFYAMGWYRPAPGKERELVAAISWRGGSTYYADSVKGRFTISRDIAKNTVYLQMNSLKPEDTAVYYCNKAGKARYWGRYNYWGQGTQVTVSS”: the “polyreactivity (PSR sort gate)” value is on record as “high polyreactivity”.

With “QVQLVESGGGLVQAGGSLRLSCAASGFIIRRYAMGWYRPAPGKERELVARISFRGGSTYYADSVKGRFTISRDNAKNTVYLQMNSLKPEATAVYYCNRDPLYSKVVDGDYWGHGTQVTVSS”, the “polyreactivity (PSR sort gate)” value was “high polyreactivity”.

Turning to “QVQLVESGGGLVQAGGSLRLSCAASGFIIRSYAMGWYRQAPVKERELVAAISRGSRTYYADSVKGRFTISRDNAKNTVYLQMNSLKPEDTAVYYCNADPNVPVETFDYWGQGTQVTVSS”, the “polyreactivity (PSR sort gate)” value is given as “high polyreactivity”.

In the case of “QVQLVESGGGLVQAGGSLRLSCAASGFIITSYAMGWYRQAPGKERELVAAIRRTGGTYYADSVKGRFTISRDNAKNTVYLQMNSLKPEDTAVYYCNTRLSYRNRGFDYWGQGTQVTVSS”, the “polyreactivity (PSR sort gate)” value is recorded as “high polyreactivity”.

“QVQLVESGGGLVQAGGSLRLSCAASGFIIYTYAMGWYRQAPGKERELVAAISRGGRTNYADSVKGRFTISRDNAKNTVYLQMNSLKPEDTAVYYCASSYSHRYDYWGQGSQVTVSS”: the “polyreactivity (PSR sort gate)” value is reported as “high polyreactivity”.

In the case of “QVQLVESGGGLVQAGGSLRLSCAASGFIIYYYAMGWYRQAPGKERELVARISRRGGSTYYADSVKGRFTISRDNAKNTVYLQMNSLKPEDTAVYYCNAERRYSWYSQGDYWGQGTQVSVSS”, the “polyreactivity (PSR sort gate)” value was “high polyreactivity”.

“QVQLVESGGGLVQAGGSLRLSCAASGFILARNAMGWYRQAPGKERELVAAITRRGGSTYYADSVKGRFTISRDNAKNTVYLQMNSLKPEDTAVYYCAAAAGPIPQERYYWGQGTHVTVSS”: the “polyreactivity (PSR sort gate)” value is “high polyreactivity”.

Take “QVQLVESGGGLVQAGGSLRLSCAASGFILAWYAMGWYRQAPGKERELVAAISTSGDSTYYADSVKGRFTISRDNAKNTVYLQMNSLKPEDTAVYYCAAGTFKPYWRKFEYWGQGTQVTLSS”: the “polyreactivity (PSR sort gate)” value is “high polyreactivity”.

“QVQLVESGGGLVQAGGSLRLSCAASGFILDTYGMGWYRQAPGKERELVAAISQSDVSTYYADSVKGRFTISRDNAKNTVYLQMNSLKQEDTAVYYCAADRGGLRWFWQVVYDYWGQGTQVTVSS”: the “polyreactivity (PSR sort gate)” value is on record as “low polyreactivity”.

In the case of “QVQLVESGGGLVQAGGSLRLSCAASGFILEAYAMGWYRQAPGKERELVAAITRRGTRTYYADSVKGRFTLSRDNAKNTVYLQMNSLKPEDTAVYYCNAESRSTWVAGYDYWGQGTQVTVSS”, the “polyreactivity (PSR sort gate)” value was “high polyreactivity”.
